Test results published in patent US20040229288A1 (AJINOMOTO, published 2004).

What was measured:
[1] = biological target: GPIb-mIgG2aFc chimeric protein (N-terminus side region of human glycoprotein Ib, amino acid numbers 1-319, fused to the Fc region of mouse immunoglobulin γ2a) (human (glycoprotein Ib part); mouse (immunoglobulin γ2a Fc part)); experiment: Eu-labelled vWF with botrocetin on captured chimeric protein, in the presence of the competitor AJvW-2 (as the table names it)
[2] = biological target: GPIb-mIgG2aFc chimeric protein (N-terminus side region of human glycoprotein Ib, amino acid numbers 1-319, fused to the Fc region of mouse immunoglobulin γ2a) (human (glycoprotein Ib part); mouse (immunoglobulin γ2a Fc part)); experiment: Eu-labelled vWF (500 ng/ml) on captured chimeric protein, ristocetin 0.5 mg/ml, no inhibitor
[3] = biological target: GPIb-mIgG2aFc chimeric protein (N-terminus side region of human glycoprotein Ib, amino acid numbers 1-319, fused to the Fc region of mouse immunoglobulin γ2a) (human (glycoprotein Ib part); mouse (immunoglobulin γ2a Fc part)); experiment: Eu-labelled vWF on captured chimeric protein, ristocetin 0 mg/ml, competitor recombinant AS1051 at 20 µg/ml
[4] = biological target: GPIb-mIgG2aFc chimeric protein (N-terminus side region of human glycoprotein Ib, amino acid numbers 1-319, fused to the Fc region of mouse immunoglobulin γ2a) (human (glycoprotein Ib part); mouse (immunoglobulin γ2a Fc part)); experiment: Eu-labelled vWF (500 ng/ml solution) with botrocetin (500 ng/ml) on chimeric protein captured by anti-mouse immunoglobulin antibodies, no inhibitor
[5] = biological target: GPIb-mIgG2aFc chimeric protein (N-terminus side region of human glycoprotein Ib, amino acid numbers 1-319, fused to the Fc region of mouse immunoglobulin γ2a) (human (glycoprotein Ib part); mouse (immunoglobulin γ2a Fc part)); experiment: Eu-labelled vWF (500 ng/ml) on captured chimeric protein, ristocetin 0.25 mg/ml, no inhibitor
[6] = biological target: GPIb-mIgG2aFc chimeric protein (N-terminus side region of human glycoprotein Ib, amino acid numbers 1-319, fused to the Fc region of mouse immunoglobulin γ2a) (human (glycoprotein Ib part); mouse (immunoglobulin γ2a Fc part)); experiment: Eu-labelled vWF (500 ng/ml) on captured chimeric protein, ristocetin 1 mg/ml, no inhibitor
[7] = biological target: GPIb-mIgG2aFc chimeric protein (N-terminus side region of human glycoprotein Ib, amino acid numbers 1-319, fused to the Fc region of mouse immunoglobulin γ2a) (human (glycoprotein Ib part); mouse (immunoglobulin γ2a Fc part)); experiment: Eu-labelled vWF on captured chimeric protein, ristocetin 1 mg/ml, competitor recombinant AS1051 at 20 µg/ml
[8] = biological target: GPIb-mIgG2aFc chimeric protein (N-terminus side region of human glycoprotein Ib, amino acid numbers 1-319, fused to the Fc region of mouse immunoglobulin γ2a) (human (glycoprotein Ib part); mouse (immunoglobulin γ2a Fc part)); experiment: Eu-labelled vWF on captured chimeric protein, ristocetin 0.25 mg/ml, competitor recombinant AS1051 at 20 µg/ml
[9] = biological target: GPIb-mIgG2aFc chimeric protein (N-terminus side region of human glycoprotein Ib, amino acid numbers 1-319, fused to the Fc region of mouse immunoglobulin γ2a) (human (glycoprotein Ib part); mouse (immunoglobulin γ2a Fc part)); experiment: Eu-labelled vWF on captured chimeric protein, ristocetin 2 mg/ml, competitor recombinant AS1051 at 20 µg/ml
[10] = biological target: GPIb-mIgG2aFc chimeric protein (N-terminus side region of human glycoprotein Ib, amino acid numbers 1-319, fused to the Fc region of mouse immunoglobulin γ2a) (human (glycoprotein Ib part); mouse (immunoglobulin γ2a Fc part)); experiment: Eu-labelled vWF (500 ng/ml) on captured chimeric protein, ristocetin 0 mg/ml, no inhibitor
[11] = biological target: GPIb-mIgG2aFc chimeric protein (N-terminus side region of human glycoprotein Ib, amino acid numbers 1-319, fused to the Fc region of mouse immunoglobulin γ2a) (human (glycoprotein Ib part); mouse (immunoglobulin γ2a Fc part)); experiment: Eu-labelled vWF on captured chimeric protein, ristocetin 0.5 mg/ml, competitor recombinant AS1051 at 20 µg/ml
[12] = biological target: GPIb-mIgG2aFc chimeric protein (N-terminus side region of human glycoprotein Ib, amino acid numbers 1-319, fused to the Fc region of mouse immunoglobulin γ2a) (human (glycoprotein Ib part); mouse (immunoglobulin γ2a Fc part)); experiment: Eu-labelled vWF (500 ng/ml) on captured chimeric protein, ristocetin 2 mg/ml, no inhibitor
[13] = biological target: T1, human von Willebrand factor (human, UniProt P04275 764-2813); experiment: ELISA: GPIb-mIgGlFc culture supernatant on vWF immobilised with botrocetin, detected with biotinylated anti-mouse IgG-Fc antibodies
T1 construct: also called vWF; von Willebrand factor labeled with europium (Eu)
Description: Immobilization of a mixed solution of von Willebrand factor and botrocetin on a 96-well multititer plate was attained as follows. First, a physiological saline solution of von Willebrand factor (250 μg/ml) and a physiological saline solution of botrocetin (500 μg/ml), which were prepared in a conventional manner, were appropriately diluted, and mixed at the concentration ratios shown in FIG. 2. Then, 50 μl of each mixture was added to each well of a 96-well multititer plate (Maxisorp, produced by Nunc). The plate was left stand overnight at 4° C., and then each well was washed once with a physiological Tris buffer (150 μl, 20 mM Tris-HCl (pH 7.4), 0.15 M sodium chloride; Tris buffered saline, referred to as “TBS” hereinafter). Then, each well was added with 100 μl of TBS containing 10% BSA (bovine serum albumin), left stand for about 3 hours, and washed 3 times with TBS to obtain a von Willebrand factor immobilized plate. […]

[14] = biological target: T1, human von Willebrand factor; experiment: Ratio of control count to count with AS1051; Eu-labelled chimeric protein on vWF immobilised with botrocetin
Description: The binding of the europium (Eu) labeled chimeric protein and the von Willebrand factor immobilized in the presence of botrocetin prepared as described above was detected as follows. According to the method mentioned in Example 4 <1>, a mixed solution (TBS) containing 2.5 μg/ml of von Willebrand factor and 2.5 μg/ml of botrocetin was added to each well of a 96-well multititer plate (microtitration plate DELFIA, 1244-550, produced by Wallac), immobilized overnight and subjected to washing, blocking and washing to prepare a von Willebrand factor immobilized plate.
Each well of the above plate was added with 25 μl of an assay buffer containing 0.5% BSA (Assay Buffer, Wallac DELFIA 1244-106, produced by Wallac, Composition: 0.5% BSA, 0.05% bovine γ-globulin, 0.01% Tween-40, 20 μM DTPA (diethylenetriamine […] acid), 50 mM Tris-HCl buffered saline (pH 7.8), 0.05% sodium azide) or the recombinant AS1051 (in which Cys81 was replaced with Ala, N. Fukuchiet al., WO 95/08573) at a final concentration of 20 μg/ml as the binding inhibition substance, further added with 25 μl of a solution of europium. […] Then, the amount of europium (Eu) was measured by using a DELFIA Research fluorophotometer (1230 ARCUS Fluorometer, produced by Wallac, measurement time: 1 second). […]

[15] = biological target: T1, human von Willebrand factor; experiment: Ratio of control count to count with inhibitor; Eu-labelled chimeric protein on immobilised vWF, botrocetin in liquid phase
Description: A TBS solution (50 μl) containing human von Willebrand factor (2.5 μg/ml) was added to each well of a 96-well plate, and the von Willebrand factor was immobilized as a solid phase overnight at 4° C. Each well was washed once with TBS (150 μl) and blocked with TBS containing 5% BSA for about 3 hours. Each well of the plate was washed twice with TBS (150 μl), and then added with 25 μl of an assay buffer (Assay Buffer, Wallac DELFIA 1244-106, produced by Wallac, composition was mentioned in Example 4 <2>) or a recombinant AS1051 (in which Cys81 was replaced with Ala) at a final concentration of 20 μg/ml, further added with the assay buffer (25 μl) containing the europium (Eu)-labeled chimeric protein prepared in Example 4 <2> (100 ng/ml) and botrocetin (500 ng/ml), and left stand at room temperature for 3 hours. Each well of the plate was washed 5 times with TBS ([…]) containing 0.05% Tween-20, then added with 100 μl of a fluorescence enhancement buffer (Enhancement solution, 1244-104, produced by Wallac, composition was mentioned in Example 4 <2>), and shaken for 1 minute. Then, the amount of europium (Eu) was measured by using a 1420 ARVO multi-label counter (produced by Wallac, measurement time: 1 second). The measured values (with no addition of sample or addition of the inhibition sample) and CV value (deviation, %) are shown in Table 2.

human von Willebrand factor (from UniProt P04275 764-2813) (ligand)
Average value of count with addition of AJvW-2 (10 µg/ml) [1]: 2340 counts | Binding amount (count) [2]: 3660 counts | Binding amount in the presence of inhibition substance (count) [3]: 3250 counts | Average value of count in control [4]: 37300 counts | Binding amount (count) [5]: 3010 counts | Binding amount (count) [6]: 13300 counts | Binding amount in the presence of inhibition substance (count) [7]: 3020 counts | Binding amount in the presence of inhibition substance (count) [8]: 3080 counts | Binding amount in the presence of inhibition substance (count) [9]: 6880 counts | Binding amount (count) [10]: 2820 counts | Binding amount in the presence of inhibition substance (count) [11]: 1850 counts | Binding amount (count) [12]: 46200 counts

B1: GPIb-mIgGlFc chimeric protein (N-terminal region of human glycoprotein Ibα chain fused to the Fc region of mouse immunoglobulin γ1) (Fc fusion)
chain: HPICEVSKVASHLEVNCDKRNLTALPPDLPKDTTILHLSENLLYTFSLATLMPYTRLTQLNLDRCELTKLQVDGTLPVLGTLDLSHNQLQSLPLLGQTLPALTVLDVSFNRLTSLPLGALRGLGELQELYLKGNELKTLPPGLLTPTPKLEKLSLANNNLTELPAGLLNGLENLDTLLLQENSLYTIPKGFFGSHLLPFAFLHGNPWLCNCEILYFRRWLQDNAENVYVWKQGVDVKAMTSNVASVQCDNSDKFPVYKYPGKGCPTLGDEGDTDLYDYYPEEDTEGDKVRATRTVVKFPTKAHTTPWGLFYSWSTASLDVPRDCGCKPCICTVPEVSSVFIFPPKPKDVLTITLTPKVTCVVVDISKDDPEVQFSWFVDDVEVHTAQTQPREEQFNSTFRSVSELPIMHQDWLNGKEFKCRVNSAAFPAPIEKTISKTKGRPKAPQVYTIPPPKEQMAKDKVSLTCMITDFFPEDITVEWQWNGQPAENYKNTQPIMDTDGSYFVYSKLNVQKSNWEAGNTFTCSVLHEGLHNHHTEKSLSHSPGK
notes: Used as serum-free culture supernatant of transfected CHOdhfr- cells, diluted 8-fold, not purified; also called GPIb-mIgG1Fc; GPIbFcFH
binding result [13]: binds

B2: GPIb-mIgG2aFc chimeric protein (N-terminus side region of human glycoprotein Ib, amino acid numbers 1-319, fused to the Fc region of mouse immunoglobulin γ2a) (Fc fusion)
chain: HPICEVSKVASHLEVNCDKRNLTALPPDLPKDTTILHLSENLLYTFSLATLMPYTRLTQLNLDRCELTKLQVDGTLPVLGTLDLSHNQLQSLPLLGQTLPALTVLDVSFNRLTSLPLGALRGLGELQELYLKGNELKTLPPGLLTPTPKLEKLSLANNNLTELPAGLLNGLENLDTLLLQENSLYTIPKGFFGSHLLPFAFLHGNPWLCNCEILYFRRWLQDNAENVYVWKQGVDVKAMTSNVASVQCDNSDKFPVYKYPGKGCPTLGDEGDTDLYDYYPEEDTEGDKVRATRTVVKFPTKAHTTPWGLFYSWSTASLDEPRGPTIKPCPPCKCPAPNLLGGPSVFIFPPKIKDVLMISLSPIVTCVVVDVSEDDPDVQISWFVNNVEVHTAQTQTHREDYNSTLRVVSALPIQHQDWMSGKEFKCKVNNKDLPAPIERTISKPKGSVRAPQVYVLPPPEEEMTKKQVTLTCMVTDFMPEDIYVEWTNNGKTELNYKNTEPVLDSDGSYFMYSKLRVEKKNWVERNSYSCSVVHEGLHNHHTTKSFSRTPGK
notes: Purified on Protein A from CHOK1 culture supernatant; also called europium (Eu) labeled chimeric protein
S/N ratio [14]: 28.5 | S/N ratio [15]: 35
